Growth estimate data for 113 sequences are collected here from the supplement of paper PMC5949888.

In the data set the test system is Saccharomyces cerevisiae PS128 hsf1 delta, HSF1(1-493) fusion. The experiment in a line: growth estimate (transactivation domain function in HSF1 fusion, heat-shock survival) (a.u. (slope of normalised read count over time)); higher = stronger growth at 37°C, i.e. more transactivation activity. To be noted: library: design library. In short, it runs like this: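 Designed transactivation-domain oligos were fused to truncated yeast HSF1 (amino acids 1–493) and expressed in an hsf1-deleted yeast strain. Cells were replica-plated onto –trp 5-FOA plates and incubated at 30°C or 37°C for 0, 2, 4, 6 and 8 days. Inserts were PCR-amplified and Illumina MiSeq-sequenced as six barcoded replicates from one experiment. Growth estimate is the slope of a robust linear fit over time of read counts normalised to sample totals and starting count.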
PEFPGIELQELQELQALLQG: the growth estimate is -0.0522. In the case of RDDDEFSLWDSML, the growth estimate was 0.648. Regarding MLGSHGFSVDTSALLDLFSP, the growth estimate was 0.0043. On to AQNGEIAQLWDFN, for which the growth estimate was -0.205. Under TMDDVYNYLFDK stands -0.18; under DLPESWDYIFETTE, -0.108; under VADDIWEALLSEDL, 8.8. For EPLYSILWSDVY, the growth estimate was -0.136.

Consider PFPDTQDDFLKWWRSEEKQ, for which the growth estimate was < -0.25.

For the sequence TMADVYNYLFDD, the growth estimate was 0.169. Regarding EDLYSILWKDVY, the growth estimate was < -0.25. Under DFDLDMLGDFDLDGLG stands 2.79; under MLSSHGFSVPTSALLDLFSP, -0.204; under EDLYSILKSDVY, < -0.25. PEFPGIELQELQELQAALQQ: the growth estimate was -0.23. For the sequence MLSSHGFSVDTSALLDGFSP, the growth estimate was -0.227. Consider EFNDLLDLDFILKN, for which the growth estimate was 2.1. Regarding VAKDIWEELLSEDL, the growth estimate was 6.26.

Take PEFAGIELQELQELQALLQQ: the growth estimate is -0.244. Under VADGIWEELLSEDL stands -0.0444.

Regarding EDLYSILASDVY, the growth estimate is -0.238. Consider DRDLDMLGDFDLDMLG, for which the growth estimate was 0.301. Consider DFDLDMLGDFDLDMAG, for which the growth estimate was 30.2. Turning to QQNGEIAALWDFN, the growth estimate was -0.237. For QQNGEIAQLRDFN the value was < -0.25; for EFNDLLDLDFILSK, 0.632; for MGSSHGFSVDTSALLDLFSP, 0.215. Under RQNGEIAQLWDFN stands < -0.25; under VADDIWPELLSEDL, 0.612.

For the sequence PEFPGIELQELQEKQALLQQ, the growth estimate is < -0.25. With EDDDEGSLWDSML, the growth estimate was < -0.25.

QQNGERAQLWDFN: the growth estimate is -0.0438. As for TMDDVYNYLFDR, the growth estimate was -0.243.

Consider KEFPGIELQELQELQALLQQ, for which the growth estimate was < -0.25.

As for EDGYSILWSDVY, the growth estimate is -0.236. For PEFPGIELQERQELQALLQQ the value was -0.248. For EFNDLPDLDFILSN, the growth estimate was -0.195. Turning to MLSSHGFSVDTSALLRLFSP, the growth estimate is -0.193. For PFPDTQDDFLKWPRSEEAQ the value was < -0.25.

With DELSWIIELLEKAG, the growth estimate is < -0.25.

On to EFNDLLDLDRILSN, for which the growth estimate was 0.151. As to MRSSHGFSVDTSALLDLFSP, the growth estimate is -0.241. Under VADDIWEELLSEDK stands -0.0473. Regarding PFPDTQDDFLKWWASEEAQ, the growth estimate was 4.59. Under DADLDMLGDFDLDMLG stands 0.604; under TGDDVYNYLFDD, -0.0152; under LFDYDFLFGNAFA, 0.211. Under MLSSHGFSKDTSALLDLFSP stands -0.239. Take EDDDEFSLWDSMA: the growth estimate is -0.238. For VAADIWEELLSEDL, the growth estimate is 1.83. In the case of EDDDEFSLGDSML, the growth estimate is < -0.25. Under TMDAVYNYLFDD stands 0.158; under EDLYSILWPDVY, 1.01. For EDGDEFSLWDSML the value was 0.533; for QQNGEIAQKWDFN, 0.0645; for VADDIWEELLSGDL, 3.96. Under PEFPGIELQELGELQALLQQ stands -0.0807. For the sequence DFDLDALGDFDLDMLG, the growth estimate is 5.01.

In the case of QQPGEIAQLWDFN, the growth estimate is -0.242. For EDLYSILWSDAY, the growth estimate is 0.452.

For PEFPGIELAELQELQALLQQ, the growth estimate is -0.181. For DRLSWIIELLEKDG the value was < -0.25. On to DLDESWDYIFETTK, for which the growth estimate was -0.0269. For DELSWIIELLEADG the value was 1.64; for PQNGEIAQLWDFN, -0.229.

In the case of PKPDTQDDFLKWWRSEEAQ, the growth estimate was -0.158.

In the case of EDLYAILWSDVY, the growth estimate was -0.11. In the case of DFDLKMLGDFDLDMLG, the growth estimate was 3.04. Under MLSSHGFSVDTSAPLDLFSP stands -0.15; under PFPDTQDDFLKWWGSEEAQ, 1.82; under PFPDTQDDFLKWWRSEEAA, -0.236.

Regarding GFPDTQDDFLKWWRSEEAQ, the growth estimate is -0.128. With PEFPPIELQELQELQALLQQ, the growth estimate is -0.0915. Regarding DFDLDMKGDFDLDMLG, the growth estimate was 0.067. With EFNDLLDLDFKLSN, the growth estimate is -0.099. Under DLDESWDYIFETAE stands 1.08.

As to EDLGSILWSDVY, the growth estimate was -0.0522. As for MLSSHGFSVDTSALLALFSP, the growth estimate is -0.21. For LFDYDFPFGNDFA the value was 0.577; for PFPDTQADFLKWWRSEEAQ, < -0.25. In the case of DELSAIIELLEKDG, the growth estimate was < -0.25.

In the case of DELSWIIELLEKRG, the growth estimate was < -0.25. As to EDDDEFSLWASML, the growth estimate was 2.21.

Regarding LFDYDFLFGNDFP, the growth estimate is 15.5. Under VADDIWEELASEDL stands < -0.25; under TMDDPYNYLFDD, -0.0775.

PEFPGIELQELQRLQALLQQ: the growth estimate is < -0.25. For PFPDTQDPFLKWWRSEEAQ, the growth estimate was < -0.25. For the sequence DLDGSWDYIFETTE, the growth estimate is 0.41. Regarding ERNDLLDLDFILSN, the growth estimate was -0.237. On to PEFPGIELQELAELQALLQQ, for which the growth estimate is 0.131.

In the case of DELSWIIELLKKDG, the growth estimate is -0.239.

Regarding MLSSHGFSGDTSALLDLFSP, the growth estimate was -0.115. For TMDDVYNKLFDD, the growth estimate is < -0.25. Under TMDDVYNYRFDD stands -0.0969.

In the case of EFNDLLDKDFILSN, the growth estimate is -0.227. For LFDYDRLFGNDFA the value was -0.0061; for VADDIWEELLSEDL, 0.661; for QQNKEIAQLWDFN, -0.241. For the sequence TMDDVYNYLFKD, the growth estimate is < -0.25. Turning to MLSSHGFSVDTPALLDLFSP, the growth estimate is -0.228. In the case of TPDDVYNYLFDD, the growth estimate was < -0.25.

Consider EDDDEFSPWDSML, for which the growth estimate was -0.228. Take EFNDLLDLGFILSN: the growth estimate was -0.244. Under EDDDEFSLKDSML stands < -0.25; under TMDDVYNYLKDD, < -0.25; under PEFGGIELQELQELQALLQQ, < -0.25. In the case of LFDYDFLFGNKFA, the growth estimate was -0.246. On to VADDIWEELLPEDL, for which the growth estimate is -0.022. Under QQNGEIAQLGDFN stands -0.218; under DFDLDMLGDFDLDMLG, 7.72.

In the case of DLAESWDYIFETTE, the growth estimate is 0.371. In the case of MLSSHGFSVDTSALGDLFSP, the growth estimate is -0.213.
